Measurements published in PMC4643883.
Read-outs that look alike come from different tables or passages of the source. Values belong to the molecule of their own block, whether it stands above or below them.

Key:
[1] = molecular target: Drosophila Telomere Loss / Modigliani (DTL/Moi), D. melanogaster (Drosophila melanogaster) (UniProt B7Z0L8); assay: SEC; combined heparin-sepharose fractions of co-expressed Ver and DTL/Moi; Superdex 200 10/300 GL; 20 mM Tris pH 7.5, 100 mM NaCl
[2] = molecular target: Drosophila Telomere Loss / Modigliani (DTL/Moi), D. melanogaster (Drosophila melanogaster) (UniProt B7Z0L8); assay: as above; remark: listed apart in the source

Sequence of UniProt B7Z0L8 (B7Z0L8 whole entry): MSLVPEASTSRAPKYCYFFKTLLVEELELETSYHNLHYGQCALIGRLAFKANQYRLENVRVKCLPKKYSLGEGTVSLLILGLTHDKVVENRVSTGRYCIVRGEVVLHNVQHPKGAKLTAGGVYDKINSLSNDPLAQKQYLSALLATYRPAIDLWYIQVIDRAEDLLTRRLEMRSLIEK

stoichiometry N [1]: 1
Molecule: D. yakuba Verrocchio (Ver) (natural protein)

stoichiometry N [2]: 1
B1: Verrocchio (Ver), D. melanogaster (natural protein)
chain: MDFNQSFEDIESQLDNFVIRKNQQSEKSTGKCGPEVHDNVPLTISQIERATQDPENENVFITDDVHPIHFCTCIIYAFVTGNGTHNESFMKFMIDDGTGSLEASITKKPFNGRVISSLYSEASSLASSEAYKSIAVSMMRLLQVSMEYIDPTRISRGHSLFLRGRPNRFRGKMGLDAFQFFIDSGRSRNMEIGFVDYLTDWQRRHKTMQNTTNK
